Values of other authors, collected in publication PMC2864607.
Read-outs that look alike come from different tables or passages of the source.

What was measured:
His326 = His326 (UniProt position 328, GHNVKHKSAIV)
His322 = His322 (UniProt position 324, WHWTGHNVKHK)
His318 = His318 (UniProt position 320, VSSTWHWTGHN)
[1] = test system: His2 (position 2, ----GHG----); experiment: NMR; conditions: 25 °C; 0.02 M NaCl; Free model peptide
His451 = His451 (UniProt position 451, EASGCHYGVLT)
His203 = His203 (UniProt position 203, LTPHRHRVSAI)
His49 = His49 (UniProt position 49, PGIICHLDDPK)
[2] = target: His3 (position 3, ---FKHLK---); experiment: NMR; conditions: 25 °C; 0.02 M NaCl; Free model peptide
[3] = target: His3 (position 3, ---KSHPE---); experiment: NMR; conditions: 25 °C, 0.02 M NaCl, Free model peptide
[4] = Protein bound specifically to its cognate DNA recognition sequence

E2 protein C-terminal DNA-binding domain (E2C) (Human papillomavirus type 16)
pKa (His326; [4]): 6.2 | pKa (His326; Unbound protein (no DNA)): 6.2 | pKa (His322; [4]): 6.3 | pKa (His322; Unbound protein (no DNA)): 6.3 | pKa (His318; [4]): 7.8 | pKa (His318; Unbound protein (no DNA)): 6.7

GHG model tripeptide (Gly-His-Gly) (synthetic)
pKa [1]: 6.68 ± 0.02

Glucocorticoid receptor (DNA-binding domain) (Rattus norvegicus)
pKa (His451; [4]): 7.9 | pKa (His451; Unbound protein (no DNA)): 5.9

Large T antigen origin-binding domain (T-ag-obd) (Simian virus 40)
pKa (His203; [4]): >8 | pKa (His203; Unbound protein (no DNA)): ~5

TATA-binding protein (PwTBP) (Pyrococcus woesei)
pKa (His49; [4]): 7.2 | pKa (His49; Unbound protein (no DNA)): 6.2

B1: FKHLK model peptide (myoglobin-derived) (synthetic (sequence from Physeter macrocephalus myoglobin)) (peptide)
chain: FKHLK
pKa [2]: 6.16 ± 0.02

B2: KSHPE model peptide (myoglobin-derived) (synthetic (sequence from Physeter macrocephalus myoglobin)) (peptide)
chain: KSHPE
pKa ([3]; cis His-Pro isomer): 6.23 ± 0.02 | pKa ([3]; trans His-Pro isomer): 6.69 ± 0.02
